The results in this text go back to paper PMC2853111.

The target of data set [1] is T1, estrogen receptor alpha (rERα, NR3A1) (UniProt P03372 1-595). The data set is described as follows: EMSA. Background: In EMSA bound probe runs differently from free probe, usually more slowly.
Data set [2] deals with T1, estrogen receptor alpha (rERα, NR3A1). Put plainly: EMSA. The source holds these as a separate data set.

Like-named read-outs stand apart in the source and are kept apart here.

T1 sequence (P03372 whole entry): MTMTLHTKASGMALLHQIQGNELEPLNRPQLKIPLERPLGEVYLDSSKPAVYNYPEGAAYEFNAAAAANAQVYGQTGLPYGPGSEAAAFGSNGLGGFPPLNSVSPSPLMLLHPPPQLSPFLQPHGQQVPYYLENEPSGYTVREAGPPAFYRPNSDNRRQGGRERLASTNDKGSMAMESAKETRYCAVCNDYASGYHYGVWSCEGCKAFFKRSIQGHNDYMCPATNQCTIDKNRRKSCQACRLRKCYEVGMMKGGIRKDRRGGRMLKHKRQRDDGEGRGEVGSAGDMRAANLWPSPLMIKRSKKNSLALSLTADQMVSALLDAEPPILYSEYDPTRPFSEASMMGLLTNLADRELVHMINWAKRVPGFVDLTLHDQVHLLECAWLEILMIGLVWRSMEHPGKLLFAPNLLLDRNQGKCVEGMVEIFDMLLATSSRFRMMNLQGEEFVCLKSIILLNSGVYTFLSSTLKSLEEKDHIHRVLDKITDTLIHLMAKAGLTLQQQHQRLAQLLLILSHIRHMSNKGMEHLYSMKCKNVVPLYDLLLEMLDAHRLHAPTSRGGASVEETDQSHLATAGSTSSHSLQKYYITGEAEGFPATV

B1: B68 ERE probe (3' ERE, MIRb) (dsDNA)
DNA 1: TTTCTGGGTCACACCGACCTGAGCT
DNA 2: AGCTCAGGTCGGTGTGACCCAGAAA
As for B1, the binding result in data set [1] is given as “binds”.

B2: D66 ERE probe (5' ERE, MIRb) (dsDNA)
DNA 1: CACCCAGGTCAGTCTGACATCTAAG
DNA 2: CTTAGATGTCAGACTGACCTGGGTG
With B2, the binding result in data set [1] is “binds”.

B3: consensus ERE probe (ERE-EMSA) (dsDNA)
DNA 1: GGATCTAGGTCACTGTGACCCCGGATC
DNA 2: GATCCGGGGTCACAGTGACCTAGATCC
Regarding B3, the binding result in data set [2] is “binds”.
